From the supplement of paper PMC12764529
± gives the half width of the 95% confidence interval.

Experiments:
[1] = folding stability dG unfold (combined trypsin and chymotrypsin); higher = more stable
How it was run: (§1)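 Mini-proteins designed to be under 80 residues and free of cysteine were carried in a PA-tagged cDNA display construct and digested with trypsin and with chymotrypsin. Each protease was applied at 11 threefold-diluted concentrations, alongside a no-protease condition, before sequencing. K50 came from Bayesian fitting of the sequencing counts, and unfolding free energy was obtained by comparing it with a sequence-predicted unfolded-state K50 and a shared folded-state K50, for each protease separately or for both together. Designs were retained only if their AlphaFold2 dimer inter-PAE exceeded 15.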

[2] = folding stability dG unfold from chymotrypsin proteolysis; higher = more stable
How it was run: as §1

[3] = folding stability dG unfold from trypsin proteolysis; higher = more stable
How it was run: as §1

Question: For “SEVKLEVEEEEDGTLRVRLEVKLTREDGREVTRELELELTIELPPVEFETEEERRAALERLLEELEKLLESA [r9_790_TrROS_Hall]”, which “folding stability dG unfold” value [1] is on record?
Answer: 3.52 ± 0.13 kcal/mol

Question: What about the “folding stability dG unfold” value [2] of the same sequence?
Answer: 3.89 ± 0.18 kcal/mol

Question: What about the “folding stability dG unfold” value [3] of the same sequence?
Answer: 3.18 ± 0.075 kcal/mol

Question: With “SEYSRIEFEDYTVLVVKKTLPNGKPLYLVRLYRKEDPKVDPVEVDSPEEAEEAVKELLKKHLPGEEVEKESA [r9_749_TrMRF]” as the sequence, how does the “folding stability dG unfold” value [1] read?
Answer: 3.08 ± 0.15 kcal/mol

Question: And the “folding stability dG unfold” value [2]?
Answer: 3.3 ± 0.033 kcal/mol

Question: And the “folding stability dG unfold” value [3]?
Answer: 2.3 ± 0.11 kcal/mol

Question: For “SFEIEILDVDPDGWIVITIRYPSPDGKPLTPEEMEEIAEEIALELFPQFPDFKVTIEHDPESGTITIVIRSA [r9_485_TrROS]”, which “folding stability dG unfold” value [1] is on record?
Answer: 4.15 ± 0.43 kcal/mol

Question: And the “folding stability dG unfold” value [2]?
Answer: 3.59 ± 0.3 kcal/mol

Question: What about the “folding stability dG unfold” value [3] of the same sequence?
Answer: 4.25 ± 0.35 kcal/mol

Question: For “SFRIMASYDPDYGTITVYVQFQDPDNGEPIPAEEIAKEIAEQFPGAKIDDIEPNPDGWFKIEIKVPPGAFSA [r9_87_TrROS]”, which “folding stability dG unfold” value [1] is on record?
Answer: 2.46 ± 0.19 kcal/mol

Question: What about the “folding stability dG unfold” value [2] of the same sequence?
Answer: 2.55 ± 0.044 kcal/mol

Question: And the “folding stability dG unfold” value [3]?
Answer: 2.19 ± 0.077 kcal/mol

Question: With “SGEFKPIATIDAKDGKPEAIIDSVKELLPDSGPVLVVLDLPDGPPKVNVIDPSTGKVREFVPGGNITIVPSA [r9_853_TrMRF]” as the sequence, how does the “folding stability dG unfold” value [1] read?
Answer: 1.03 ± 0.056 kcal/mol

Question: What about the “folding stability dG unfold” value [2] of the same sequence?
Answer: 1.39 ± 0.021 kcal/mol

Question: What about the “folding stability dG unfold” value [3] of the same sequence?
Answer: 0.355 ± 0.037 kcal/mol

Question: Which “folding stability dG unfold” value [1] does the source give for “SGEIIGEQTFPVEDGGKVPVKIYKNPGNLYAEVFNDDDKPIQEQEIPPDDDLEDIENIKLPPGAWVRIYWSA [r9_215_TrROS]” here?
Answer: 0.433 ± 0.3 kcal/mol

Question: What about the “folding stability dG unfold” value [2] of the same sequence?
Answer: 0.368 ± 0.39 kcal/mol

Question: And the “folding stability dG unfold” value [3]?
Answer: 0.205 ± 0.14 kcal/mol

Question: Which “folding stability dG unfold” value [1] does the source give for “SGISNEEIKKILEEIAKEYPGLKIEIKPGTEPSVAKGPKAVVTLTRKPGYLEITITFPETGETTTIPIPPSA [r9_1062_JUSTAS]” here?
Answer: 2.64 ± 0.043 kcal/mol

Question: And the “folding stability dG unfold” value [2]?
Answer: 2.721 ± 0.02 kcal/mol

Question: And the “folding stability dG unfold” value [3]?
Answer: 2.51 ± 0.072 kcal/mol

Question: With “SGKVKVKVEIPIPFRPPDGKWMMMNIWVEAEVPVTPEDLNNGKPRIRPEALDEAKDKVREWMRDIFGEPISA [r9_629_TrROS]” as the sequence, how does the “folding stability dG unfold” value [1] read?
Answer: 1.45 ± 0.13 kcal/mol

Question: What about the “folding stability dG unfold” value [2] of the same sequence?
Answer: 1.74 ± 0.11 kcal/mol

Question: What about the “folding stability dG unfold” value [3] of the same sequence?
Answer: 1.03 ± 0.052 kcal/mol

Question: Which results are given for “SGLAPGEVVPEKFEREITDPETGKKYKVEVTTEIAPENPVRRVTVTTTPPDGTTTTTEEVIPPGEEYTLESA [r9_88_JUSTAS]”?
Answer: folding stability dG unfold [1]: 0.468 ± 0.077 kcal/mol; folding stability dG unfold [2]: 0.867 ± 0.092 kcal/mol; folding stability dG unfold [3]: -0.889 ± 0.27 kcal/mol

Question: Which “folding stability dG unfold” value [1] does the source give for “SGLLEKFLKEAEEWIKKLGLKVKPGEKVEIPIPFENNLIAKIEFYPGEKIIKVVLIGENKPVEYKFKIEKSA [r9_426_TrMRF]” here?
Answer: 1.88 ± 0.45 kcal/mol

Question: And the “folding stability dG unfold” value [2]?
Answer: 2.32 ± 0.17 kcal/mol

Question: What about the “folding stability dG unfold” value [3] of the same sequence?
Answer: 1.53 ± 0.16 kcal/mol

Question: For “SGLVEAIAKALGAESVTPHPDGTFSLRLKDGSYLKIKVEVLEVRERPDGSPEFIVKIEIEVFEGGKPEDESA [r9_648_TrMRF]”, which “folding stability dG unfold” value [1] is on record?
Answer: > 6 kcal/mol

Question: What about the “folding stability dG unfold” value [2] of the same sequence?
Answer: 5.94 ± 0.065 kcal/mol

Question: And the “folding stability dG unfold” value [3]?
Answer: 4.56 ± 0.14 kcal/mol

Question: For “SGMIDVDLDYTTEDGRPVKVSASYDPATGVLTFKVPDNDDVIIATVTEVTTEDESVTVTLNVTRYSKELLSA [r9_587_JUSTAS]”, which “folding stability dG unfold” value [1] is on record?
Answer: 2.09 ± 0.14 kcal/mol

Question: What about the “folding stability dG unfold” value [2] of the same sequence?
Answer: 2.54 ± 0.066 kcal/mol

Question: What about the “folding stability dG unfold” value [3] of the same sequence?
Answer: 0.957 ± 0.072 kcal/mol

Question: With “SGMMRTIVLKIPIEEARKLLGDPNKPVSEEELKALVEKLAKEKGLDVEEIKVEKLPDGTYVVTVLVPDLGSA [r9_52_JUSTAS]” as the sequence, how does the “folding stability dG unfold” value [1] read?
Answer: 3.81 ± 0.099 kcal/mol

Question: What about the “folding stability dG unfold” value [2] of the same sequence?
Answer: 4.12 ± 0.076 kcal/mol

Question: And the “folding stability dG unfold” value [3]?
Answer: 3.06 ± 0.12 kcal/mol

Question: Which “folding stability dG unfold” value [1] does the source give for “SGMPPVSFANLELVAVSPDGTVTVVRAELTGPDGERYVWTGSLSELLKRLEEEDLTLDNFKEGGLIVAVDSA [r9_1078_TrMRF]” here?
Answer: 3.44 ± 0.041 kcal/mol

Question: And the “folding stability dG unfold” value [2]?
Answer: 3.75 ± 0.039 kcal/mol

Question: What about the “folding stability dG unfold” value [3] of the same sequence?
Answer: 2.77 ± 0.06 kcal/mol

Question: What does the source list for “SGMSMAKDAKPIYIEYRDPNGKSYRVTEVKVNEDGTLTITIEYPDSIKTYTLPPNANYPLSSSLILSTVESA [r9_993_JUSTAS]”?
Answer: folding stability dG unfold [1]: 1.45 ± 0.14 kcal/mol; folding stability dG unfold [2]: 1.43 ± 0.13 kcal/mol; folding stability dG unfold [3]: 1.4 ± 0.076 kcal/mol

Question: For “SGMVEVKVTVPPGPATLTATPSDGSTYSKSIPANSEVTFTFPVPASLPSSTTITFTLTFPDTGTTTTTSVSA [r9_275_JUSTAS]”, which “folding stability dG unfold” value [1] is on record?
Answer: 1.28 ± 0.26 kcal/mol

Question: What about the “folding stability dG unfold” value [2] of the same sequence?
Answer: 1.26 ± 0.25 kcal/mol

Question: And the “folding stability dG unfold” value [3]?
Answer: 1.28 ± 0.051 kcal/mol

Question: For “SGPALEILRAASEEEGVPVLAEVVPDADGNPVIPAVVWSPEDIEAGELPGEVKEAPITVDGKTYRVVLFASA [r9_489_TrMRF]”, which “folding stability dG unfold” value [1] is on record?
Answer: -0.0573 ± 0.086 kcal/mol

Question: What about the “folding stability dG unfold” value [2] of the same sequence?
Answer: -0.0942 ± 0.18 kcal/mol

Question: What about the “folding stability dG unfold” value [3] of the same sequence?
Answer: -0.224 ± 0.11 kcal/mol

Question: Which results are given for “SGPFQFFVKIEYKGKNGKTQERELPINMPPGDFDKFIEEILDDPNLEGADDVEIDVYMAGTGRPQEIEIPSA [r9_97_TrROS]”?
Answer: folding stability dG unfold [1]: 1.07 ± 0.092 kcal/mol; folding stability dG unfold [2]: 1.22 ± 0.11 kcal/mol; folding stability dG unfold [3]: 0.678 ± 0.061 kcal/mol
